From paper PMC12525094 come the findings set out here.

The subject of series [1] is BvPgb 1.2 rWT (class 1 phytoglobin) (Beta vulgaris). The series is described as follows: isothermal spectral shift (Monolith X). Conditions: PBS pH 7.4, 0.05% Tween20, 25 °C, 15 min equilibration, 16-step DNA dilution, top DNA stock 673 nM (i.e. 2.5 ng pET19b/µL; the two figures are …).
In series [2] the test system is BvPgb 1.2 C86A (Beta vulgaris). The series is described as follows: isothermal spectral shift (Monolith X). The following applies: PBS pH 7.4, 0.05% Tween20, 25 °C, 15 min equilibration, 16-step DNA dilution, top DNA stock 673 nM (i.e. 2.5 ng pET19b/µL; the two figures are …).
Series [3] addresses Class 1 phytoglobin from Beta vulgaris (BvPgb 1.2), cysteine-to-alanine variant C86A (Beta vulgaris (sugar beet)). The experiment in a line: other fluorescence titration; isothermal spectral shift (SpS), Monolith X, dual emission ratio 670/650 nm; NHS-dye-labelled Pgb mixed with a sixteen-step dilution of GAPDH (highest 32 µM), equilibrated 15 min, in capillaries; PBS pH 7.4 with 0.05% Tween20; 25 °C.

Series [4] has as its target Class 1 phytoglobin from Beta vulgaris (BvPgb 1.2), recombinant wild type (Beta vulgaris (sugar beet)). Described as above.
Where [5] appears, read: closed (hexacoordinate) phase of biphasic fit.
[6] abbreviates: open (pentacoordinate) phase of biphasic fit.

On to pET19b plasmid DNA, for which the dissociation constant Kd in series [1] (setting [5]) is 0.1 nM; in series [1] (setting [6]), 120 nM; in series [2] (setting [5]), 0.23 nM; in series [2] (setting [6]), 50 nM.
As for “Glyceraldehyde-3-phosphate dehydrogenase (GAPDH), human (from UniProt P04406 1-335) (enzyme)”, the figures for the equilibrium dissociation constant (Kd) in series [3] and in series [4] were 120 nM and 260 nM, respectively.
